Results taken from the supplement of paper PMC10126150.
± gives the standard deviation of the averaged measurements.

The sequences below were run on ATP (assay: switch fluorescence ratio, 500 uM ATP over buffer (Cy3 cluster intensity, sum of 5 cycles each) (fold (ratio)); higher = stronger signal-on switching upon ATP binding; sequences stand for … in TCGTCGGCAGCGTCAGATGTGTATAAGAGACAGTTTTTTTTTTTTTTTTTTTTTTTTT…TC). Details: aptamer strand: ATP DNA aptamer (quencher-CACCTGGGGGAGTATTGCGGAGGAAGG + anchor), 100 nM annealed; ATP concentration: 500 uM.
Summary of the method: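 For every switch-domain sequence, the fluorescence ratio is the mean of per-cluster values, each being summed target-cycle Cy3 intensity over summed buffer-cycle Cy3 intensity. Clusters outside 100-1000 RFU were excluded. On a modified Illumina MiSeq flow-cell, the Cy3-labelled switching-strand clusters were annealed to 100 nM quencher-labelled ATP aptamer, imaged in selection buffer and then after 15 min with 500 uM ATP at 22 °C. Five such cycles were run, with NaOH stripping and re-annealing between them.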
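Also: ATP exposure 15 min at 22 °C before imaging.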

Row | Sequence | switch fluorescence ratio
1 | ATATGTCAGA | 0.9958 ± 0.0056
2 | GCAGTATTCC | 1.66 ± 0.11
3 | AAGGGGCTCT | 0.993 ± 0.033
4 | CGATGAATTC | 1.07 ± 0.048
5 | GCGATAGCAG | 1.03 ± 0.036
6 | GGGGTTTGG | 1.004 ± 0.0067
7 | ACGCTGTTGG | 1.01 ± 0.035
8 | TCGCTCGCAT | 3.68 ± 0.73
9 | TACGGGGGTA | 1.02 ± 0.036
10 | GCATGGGGCG | 1.037 ± 0.0041
11 | ATTTGTGTA | 0.992 ± 0.012
12 | TCGGTGTGCG | 1.03 ± 0.033
13 | TGTGGGGGTT | 0.986 ± 0.048
14 | GGGGCGGTCT | 0.9667 ± 0.004
15 | GTGCGTCTTT | 1.01 ± 0.041
16 | AAAAAGCTGG | 1.03 ± 0.038
17 | TTTAACTCTG | 1 ± 0.011
18 | AAAGCTGGGA | 1.01 ± 0.019
19 | CTCATTTATT | 0.98 ± 0.064
20 | GGGAATAATG | 1.01 ± 0.0091
21 | TCTCGGGCTT | 0.9873 ± 0.0047
22 | GCTCCTAGCT | 1.07 ± 0.028
23 | TTGTGGCAGG | 1.01 ± 0.054
24 | GGGGGCACG | 1.006 ± 0.0098
25 | TATTGGTAGG | 0.941 ± 0.019

Row | Sequence | switch fluorescence ratio
26 | GACTATTGTT | 1 ± 0.015
27 | ACCTAGGACT | 1.024 ± 0.0027
28 | CTCTGTTGTG | 0.961 ± 0.012
29 | TTTAAGTCAG | 1.018 ± 0.0088
30 | GGACTCGGGG | 1.04 ± 0.043
31 | TGTTTGGGAG | 1.01 ± 0.031
32 | TCGAAGTAGG | 1.46 ± 0.71
33 | CAGGCGGAGA | 0.969 ± 0.026
34 | TGCAGGGGCG | 1.04 ± 0.14
35 | GAACTATTCA | 0.9848 ± 0.0054
36 | ACTTGCGCAG | 1.05 ± 0.043
37 | TCGGATAGGT | 1.02 ± 0.025
38 | GGGTACAGTT | 1.01 ± 0.018
39 | TTTGATTTGG | 0.921 ± 0.022
40 | GGGGGTTACA | 1.005 ± 0.005
41 | CAGGGTTTCG | 1.02 ± 0.078
42 | TAATTTCCGG | 0.994 ± 0.029
43 | CAGACCAGCT | 1.02 ± 0.036
44 | GAGGAGGGGC | 1.02 ± 0.054
45 | TTTAGTAGTT | 1.01 ± 0.017
46 | CCTCGGGTTA | 1.42 ± 0.038
47 | TCGATGGCAT | 1.31 ± 0.065
48 | CATAAAGATG | 1.053 ± 0.01
49 | ATGGAATTGT | 0.986 ± 0.022
50 | TGGAAGTGAG | 0.969 ± 0.055

Row | Sequence | switch fluorescence ratio
51 | TGATTGGATG | 0.9855 ± 0.007
52 | ATGCTGTCTG | 1 ± 0.043
53 | TTAGATACCA | 1.03 ± 0.039
54 | CAGGCGAGTG | 0.96 ± 0.014
55 | CGGGGATGAA | 1.01 ± 0.063
56 | TTCGGTGGCG | 0.978 ± 0.077
57 | TGATTCTTAT | 0.97 ± 0.014
58 | TTTAATTGG | 1 ± 0.048
59 | GGGAAATGTT | 1.06 ± 0.016
60 | TTGCTCATAA | 1 ± 0.032
61 | GGGTGGGAAT | 1.01 ± 0.043
62 | GTATGAGTCG | 1.01 ± 0.085
63 | TCCTTTGTGG | 1.02 ± 0.021
64 | AACCGAAGAC | 2.15 ± 0.075
65 | GTTTTCGGCC | 0.996 ± 0.029
66 | TGTGAGGGGA | 1.01 ± 0.035
67 | ATTAGAACGG | 1.01 ± 0.022
68 | TAGGGCAACG | 1.04 ± 0.025
69 | TTATGCCGGG | 0.971 ± 0.032
70 | AGATAATCGC | 0.987 ± 0.03
71 | ATAGGGTTGC | 1.01 ± 0.014
72 | GAAATTCACA | 1.04 ± 0.031
73 | ATGGAGTAAA | 1.005 ± 0.0084
74 | TGGGTGTTTG | 1.03 ± 0.038
75 | CAGTGCGTGT | 1 ± 0.03

Row | Sequence | switch fluorescence ratio
76 | GATTGGGGCG | 1.02 ± 0.015
77 | GGTTTCTGAA | 0.998 ± 0.02
78 | GCCCGTTTCG | 0.9989 ± 0.0082
79 | GGCGGGGAAA | 0.981 ± 0.045
80 | AAGATTAGGT | 1 ± 0.059
81 | ATTGTGCGGC | 1.01 ± 0.027
82 | ACTTTCTCAG | 1.077 ± 0.0049
83 | CGTTGCTCGA | 0.9992 ± 0.0064
84 | TCAGTTTACG | 0.988 ± 0.019
85 | AATGGCGGGC | 1.01 ± 0.029
86 | TTAAATTATT | 0.984 ± 0.024
87 | TAGAGCATTG | 1 ± 0.044
88 | AGAATATTAA | 0.978 ± 0.013
89 | CGGCGTGGGG | 1.03 ± 0.027
90 | GGGAGGATTA | 1 ± 0.031
91 | CATCCGGCCG | 1.194 ± 0.0019
92 | GATTTTGGCG | 1.01 ± 0.046
93 | TATGCGGCTT | 0.988 ± 0.04
94 | AAGTTTTGAG | 1.03 ± 0.019
95 | AGGTTATTTT | 0.992 ± 0.04
96 | AAGGGTTATG | 0.994 ± 0.027
97 | TATCTATGTA | 1.01 ± 0.02
98 | GCGGTACGCT | 1.08 ± 0.091
99 | GGAAGGCATA | 0.9829 ± 0.0096
100 | CGTTGGAAGA | 1.02 ± 0.015
